Test results: article PMC7800377

Molecular target: SUN domain of human SUN1 (amino acid residues 616–812), tags removed (human)
Test: SEC-MALS; co-expressed and co-purified samples at >1 mg/ml on Superdex 200 Increase 10/300 GL in 20 mM Tris pH 8.0, 150 mM KCl, 2 mM DTT

Sequence of KASH domain of human Nesprin-1 (KASH1, amino acid residues 8769–8797), tags removed (Q8NF91 8769-8797): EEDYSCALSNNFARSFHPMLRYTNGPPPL

stoichiometry N (binder:target ratio (6:6)): 1
Substance: KASH domain of human Nesprin-1 (KASH1, amino acid residues 8769–8797), tags removed (from UniProt Q8NF91 8769-8797) (domain or fragment)
